Target: anti-HRP antibody
Test: release of labelled peptide L1 from anti-HRP antibody in solution, HRP concentration varied; released peptide separated and read by fluorescence

## HRP (from UniProt P00433 31-338) (enzyme)
  EC50 (read off the curve): 900 nM
